This is an account of results in patent US20240270821A1, “GIP/GLP1/GCG TRI-RECEPTOR AGONISTS AND USES THEREOF” (priority 2023, published 2024).

Changes are numbered by the printed parent chain.

To fix the notation:
B1: Example 466 (peptide)
chain: HXQGTXTSDXXIXLDXKAQXAFIEYLLEGGPSSGEPPPE
modifications: synthetic construct; SITE 2: note = 2-Aminoisobutyric Acid; SITE 6: note = alpha-methyl-2-fluoro-L-phenylalanine; SITE 10: note = 3-(4-Pyridyl)-L-alanine; SITE 11: note = alpha-methyl-L-serine; SITE 13: note = alpha-methyl-leucine; SITE 16: note = L-ornithine; SITE 17: note = Lysine is chemically mo
B2: Example 479 (peptide)
chain: B1 chain with P37E
modifications: synthetic construct; SITE 2: note = 2-Aminoisobutyric Acid; SITE 6: note = alpha-methyl-2-fluoro-L-phenylalanine; SITE 10: note = 3-(4-Pyridyl)-L-alanine; SITE 11: note = alpha-methyl-L-serine; SITE 13: note = alpha-methyl-leucine; SITE 16: note = L-ornithine; SITE 17: note = Lysine is chemically mo
B3: Example 478 (peptide)
chain: B1 chain with A21N
modifications: synthetic construct; SITE 2: note = 2-Aminoisobutyric Acid; SITE 6: note = alpha-methyl-2-fluoro-L-phenylalanine; SITE 10: note = 3-(4-Pyridyl)-L-alanine; SITE 11: note = alpha-methyl-L-serine; SITE 13: note = alpha-methyl-leucine; SITE 16: note = L-ornithine; SITE 17: note = Lysine is chemically mo
B4: Example 486 (peptide)
chain: B1 chain with H1Y, X11S, L27E, E39S
modifications: synthetic construct; SITE 2: note = 2-Aminoisobutyric Acid; SITE 6: note = alpha-methyl-2-fluoro-L-phenylalanine; SITE 10: note = 3-(4-Pyridyl)-L-alanine; SITE 13: note = alpha-methyl-leucine; SITE 16: note = L-ornithine; SITE 17: note = Lysine is chemically modified through conjugation of the epsil
B5: Example 473 (peptide)
chain: YXQGTXTSDXXIXLDXKAQXNFIEXLIEGGPSSGEPEPSEG
modifications: synthetic construct; SITE 2: note = 2-Aminoisobutyric Acid; SITE 6: note = alpha-methyl-2-fluoro-L-phenylalanine; SITE 10: note = 3-(4-Pyridyl)-L-alanine; SITE 11: note = alpha-methyl-L-serine; SITE 13: note = alpha-methyl-leucine; SITE 16: note = L-ornithine; SITE 17: note = Lysine is chemically mo
B6: Example 477 (peptide)
chain: B5 chain with X11S, N21X, X25Y, E37P, S39E
modifications: synthetic construct; SITE 2: note = 2-Aminoisobutyric Acid; SITE 6: note = alpha-methyl-2-fluoro-L-phenylalanine; SITE 10: note = 3-(4-Pyridyl)-L-alanine; SITE 13: note = alpha-methyl-leucine; SITE 16: note = L-ornithine; SITE 17: note = Lysine is chemically modified through conjugation of the epsil
B7: Example 474 (peptide)
chain: B5 chain with S39E
modifications: synthetic construct; SITE 2: note = 2-Aminoisobutyric Acid; SITE 6: note = alpha-methyl-2-fluoro-L-phenylalanine; SITE 10: note = 3-(4-Pyridyl)-L-alanine; SITE 11: note = alpha-methyl-L-serine; SITE 13: note = alpha-methyl-leucine; SITE 16: note = L-ornithine; SITE 17: note = Lysine is chemically mo
B8: Example 476 (peptide)
chain: B5 chain with N21X, X25Y, E37P, S39E
modifications: synthetic construct; SITE 2: note = 2-Aminoisobutyric Acid; SITE 6: note = alpha-methyl-2-fluoro-L-phenylalanine; SITE 10: note = 3-(4-Pyridyl)-L-alanine; SITE 11: note = alpha-methyl-L-serine; SITE 13: note = alpha-methyl-leucine; SITE 16: note = L-ornithine; SITE 17: note = Lysine is chemically mo
B9: Example 482 (peptide)
chain: B5 chain with X25Y, E37P, S39E
modifications: synthetic construct; SITE 2: note = 2-Aminoisobutyric Acid; SITE 6: note = alpha-methyl-2-fluoro-L-phenylalanine; SITE 10: note = 3-(4-Pyridyl)-L-alanine; SITE 11: note = alpha-methyl-L-serine; SITE 13: note = alpha-methyl-leucine; SITE 16: note = L-ornithine; SITE 17: note = Lysine is chemically mo
B10: Example 475 (peptide)
chain: B5 chain with X11S, N21X, E37P, S39E
modifications: synthetic construct; SITE 2: note = 2-Aminoisobutyric Acid; SITE 6: note = alpha-methyl-2-fluoro-L-phenylalanine; SITE 10: note = 3-(4-Pyridyl)-L-alanine; SITE 13: note = alpha-methyl-leucine; SITE 16: note = L-ornithine; SITE 17: note = Lysine is chemically modified through conjugation of the epsil

The target of one assay is human glucagon receptor (human) (UniProt P47871). The experiment in a line: cell-based or functional assay.
human glucagon receptor (human), sequence (P47871 26-477): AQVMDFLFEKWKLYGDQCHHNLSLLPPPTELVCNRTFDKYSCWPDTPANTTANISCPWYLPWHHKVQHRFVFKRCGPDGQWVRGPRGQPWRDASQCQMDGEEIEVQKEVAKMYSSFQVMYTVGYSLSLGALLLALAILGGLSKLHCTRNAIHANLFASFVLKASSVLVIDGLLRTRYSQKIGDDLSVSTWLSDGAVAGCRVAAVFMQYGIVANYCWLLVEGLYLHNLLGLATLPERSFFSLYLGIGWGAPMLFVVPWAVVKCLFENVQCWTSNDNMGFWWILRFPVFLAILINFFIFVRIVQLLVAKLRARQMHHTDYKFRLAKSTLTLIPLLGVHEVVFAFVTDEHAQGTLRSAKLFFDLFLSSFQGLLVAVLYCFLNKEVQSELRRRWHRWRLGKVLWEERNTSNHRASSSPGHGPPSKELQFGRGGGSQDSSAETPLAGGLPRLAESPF
With B1, the Relative cAMP EC50, nM (0.1% casein) was 5.84 nM and the cAMP Rel EC50 (receptor-expressing HEK-293 cells, 1% HSA) turned out to be 348 nM.
In the same order, the values of B2 are 5.98 nM and 432 nM.
In the same order, the values of B3 are 8.07 nM and 665 nM.
B4 came in with a Relative cAMP EC50, nM (0.1% casein) of 4.43 nM and a cAMP Rel EC50 (receptor-expressing HEK-293 cells, 1% HSA) of 647 nM.
Molecule B5 returned a Relative cAMP EC50, nM (0.1% casein) of 2.72 nM and a cAMP Rel EC50 (receptor-expressing HEK-293 cells, 1% HSA) of 311 nM.
In the same order, the values of B6 are 5.26 nM and 716 nM.
The molecule B7 came in with a Relative cAMP EC50, nM (0.1% casein) of 3.88 nM and a cAMP Rel EC50 (receptor-expressing HEK-293 cells, 1% HSA) of 166 nM.
The molecule B8 had a Relative cAMP EC50, nM (0.1% casein) of 1.34 nM and a cAMP Rel EC50 (receptor-expressing HEK-293 cells, 1% HSA) of 90.2 nM.
B9 returned a Relative cAMP EC50, nM (0.1% casein) of 1.41 nM and a cAMP Rel EC50 (receptor-expressing HEK-293 cells, 1% HSA) of 325 nM.
Molecule B10 returned a Relative cAMP EC50, nM (0.1% casein) of 2.24 nM and a cAMP Rel EC50 (receptor-expressing HEK-293 cells, 1% HSA) of 254 nM.

A further assay addresses T1, human GIP receptor (human) (UniProt P48546).
T1 sequence (looked up): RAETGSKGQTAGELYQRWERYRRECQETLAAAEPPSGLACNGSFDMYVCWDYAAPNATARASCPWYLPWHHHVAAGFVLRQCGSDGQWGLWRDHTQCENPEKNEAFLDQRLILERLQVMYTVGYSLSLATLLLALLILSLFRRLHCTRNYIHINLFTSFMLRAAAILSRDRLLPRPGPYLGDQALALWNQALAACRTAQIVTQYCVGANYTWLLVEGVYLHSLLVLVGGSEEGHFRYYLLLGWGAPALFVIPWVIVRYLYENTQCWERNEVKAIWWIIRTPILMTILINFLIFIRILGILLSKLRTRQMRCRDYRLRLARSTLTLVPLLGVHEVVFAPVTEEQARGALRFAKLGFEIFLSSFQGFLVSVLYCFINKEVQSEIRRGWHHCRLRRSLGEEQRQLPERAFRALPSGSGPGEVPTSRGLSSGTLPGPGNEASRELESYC
The assay can be described thus: cell-based or functional assay.
Regarding B1, the Relative cAMP EC50, nM (0.1% casein) was found to be 0.0466 nM and the cAMP Rel EC50 (receptor-expressing HEK-293 cells, 1% HSA) stood at 5.65 nM.
In the same order, the values of B2 are 0.0905 nM and 7.11 nM.
In the same order, the values of B3 are 0.106 nM and 26 nM.
With B4, the Relative cAMP EC50, nM (0.1% casein) was determined as 0.0262 nM and the cAMP Rel EC50 (receptor-expressing HEK-293 cells, 1% HSA) worked out at 2.57 nM.
Consider B5, for which the Relative cAMP EC50, nM (0.1% casein) was found to be 0.0101 nM and the cAMP Rel EC50 (receptor-expressing HEK-293 cells, 1% HSA) worked out at 1.11 nM.
The matching figures for B6: 0.0127 nM and 1.44 nM.
For the molecule B7, the Relative cAMP EC50, nM (0.1% casein) amounted to 0.0125 nM and the cAMP Rel EC50 (receptor-expressing HEK-293 cells, 1% HSA) came to 0.743 nM.
With B8, the Relative cAMP EC50, nM (0.1% casein) was 0.0131 nM and the cAMP Rel EC50 (receptor-expressing HEK-293 cells, 1% HSA) stood at 1.29 nM.
Consider B9, for which the Relative cAMP EC50, nM (0.1% casein) amounted to 0.0139 nM and the cAMP Rel EC50 (receptor-expressing HEK-293 cells, 1% HSA) came out at 1.58 nM.
The molecule B10 displayed a Relative cAMP EC50, nM (0.1% casein) of 0.0173 nM and a cAMP Rel EC50 (receptor-expressing HEK-293 cells, 1% HSA) of 1.85 nM.

The target in the next assay is hGLP-1R (Homo sapiens, UniProt P43220). The experiment in a line: cell-based or functional assay.
hGLP-1R, sequence (P43220 24-463): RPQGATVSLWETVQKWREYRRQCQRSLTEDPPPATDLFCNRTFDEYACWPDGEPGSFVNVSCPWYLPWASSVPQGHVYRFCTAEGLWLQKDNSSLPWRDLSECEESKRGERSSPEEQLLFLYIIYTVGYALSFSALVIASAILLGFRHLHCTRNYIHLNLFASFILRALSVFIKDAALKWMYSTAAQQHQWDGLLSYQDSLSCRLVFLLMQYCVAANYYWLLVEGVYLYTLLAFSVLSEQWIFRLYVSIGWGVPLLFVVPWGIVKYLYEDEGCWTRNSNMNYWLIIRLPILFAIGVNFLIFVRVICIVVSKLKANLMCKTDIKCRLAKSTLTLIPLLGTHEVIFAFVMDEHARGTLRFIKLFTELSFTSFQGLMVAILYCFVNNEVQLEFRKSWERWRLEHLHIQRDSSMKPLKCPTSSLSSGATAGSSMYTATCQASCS
Regarding B1, the Relative cAMP EC50, nM (0.1% casein) was 0.207 nM and the cAMP Rel EC50 (receptor-expressing HEK-293 cells, 1% HSA) stood at 13.3 nM.
For the molecule B2, the Relative cAMP EC50, nM (0.1% casein) was determined as 0.314 nM and the cAMP Rel EC50 (receptor-expressing HEK-293 cells, 1% HSA) came to 23.5 nM.
In the case of B3, the Relative cAMP EC50, nM (0.1% casein) stood at 0.243 nM and the cAMP Rel EC50 (receptor-expressing HEK-293 cells, 1% HSA) was determined as 28.6 nM.
In the case of B4, the Relative cAMP EC50, nM (0.1% casein) was found to be 0.375 nM and the cAMP Rel EC50 (receptor-expressing HEK-293 cells, 1% HSA) amounted to 35 nM.
B5: the Relative cAMP EC50, nM (0.1% casein) turned out to be 0.173 nM and the cAMP Rel EC50 (receptor-expressing HEK-293 cells, 1% HSA) is 11.4 nM.
B6 had a Relative cAMP EC50, nM (0.1% casein) of 0.173 nM and a cAMP Rel EC50 (receptor-expressing HEK-293 cells, 1% HSA) of 18.7 nM.
In the same order, the values of B7 are 0.236 nM and 10.6 nM.
For B8, the Relative cAMP EC50, nM (0.1% casein) came out at 0.164 nM and the cAMP Rel EC50 (receptor-expressing HEK-293 cells, 1% HSA) is 14.6 nM.
Turning to B9, the Relative cAMP EC50, nM (0.1% casein) worked out at 0.177 nM and the cAMP Rel EC50 (receptor-expressing HEK-293 cells, 1% HSA) was determined as 14.9 nM.
In the same order, the values of B10 are 0.254 nM and 18.6 nM.
